{
  "source": "the Immune Epitope Database (IEDB)",
  "key": {"[1]": {"target": "HLA-C*14:02", "experiment": "IEDB peptide-MHC binding, purified MHC/direct/fluorescence; filed as Kd, often an IC50 or EC50 that approximates it; ≥ and ≤ were set here for values at or beyond the usual limits of such assays"}, "[2]": {"target": "HLA-A*02:01", "experiment": "IEDB peptide-MHC binding, purified MHC/direct/fluorescence; filed as Kd, often an IC50 or EC50 that approximates it; ≥ and ≤ were set here for values at or beyond the usual limits of such assays"}, "[3]": {"target": "HLA-A*03:01", "experiment": "IEDB peptide-MHC binding, purified MHC/direct/fluorescence; filed as Kd, often an IC50 or EC50 that approximates it; ≥ and ≤ were set here for values at or beyond the usual limits of such assays"}, "[4]": {"target": "HLA-A*11:01", "experiment": "IEDB peptide-MHC binding, purified MHC/direct/fluorescence; filed as Kd, often an IC50 or EC50 that approximates it; ≥ and ≤ were set here for values at or beyond the usual limits of such assays"}, "[5]": {"target": "HLA-A*31:01", "experiment": "IEDB peptide-MHC binding, purified MHC/direct/fluorescence; filed as Kd, often an IC50 or EC50 that approximates it; ≥ and ≤ were set here for values at or beyond the usual limits of such assays"}, "[6]": {"target": "HLA-B*15:01", "experiment": "IEDB peptide-MHC binding, purified MHC/direct/fluorescence; filed as Kd, often an IC50 or EC50 that approximates it; ≥ and ≤ were set here for values at or beyond the usual limits of such assays"}, "[7]": {"target": "HLA-B*27:05", "experiment": "IEDB peptide-MHC binding, purified MHC/direct/fluorescence; filed as Kd, often an IC50 or EC50 that approximates it; ≥ and ≤ were set here for values at or beyond the usual limits of such assays"}, "[8]": {"target": "HLA-B*40:01", "experiment": "IEDB peptide-MHC binding, purified MHC/direct/fluorescence; filed as Kd, often an IC50 or EC50 that approximates it; ≥ and ≤ were set here for values at or beyond the usual limits of such assays"}, "[9]": {"target": "HLA-B*58:01", "experiment": "IEDB peptide-MHC binding, purified MHC/direct/fluorescence; filed as Kd, often an IC50 or EC50 that approximates it; ≥ and ≤ were set here for values at or beyond the usual limits of such assays"}, "[10]": {"target": "HLA-B*46:01", "experiment": "IEDB peptide-MHC binding, purified MHC/competitive/fluorescence; filed as Kd, often an IC50 or EC50 that approximates it; ≥ and ≤ were set here for values at or beyond the usual limits of such assays", "conditions": "source organism: SARS-CoV1"}, "[11]": {"target": "HLA-B*08:02", "experiment": "IEDB peptide-MHC binding, purified MHC/direct/fluorescence; filed as Kd, often an IC50 or EC50 that approximates it; ≥ and ≤ were set here for values at or beyond the usual limits of such assays", "conditions": "source organism: dengue virus type 4"}, "[12]": {"target": "HLA-C*06:02", "experiment": "IEDB peptide-MHC binding, purified MHC/direct/fluorescence; filed as Kd, often an IC50 or EC50 that approximates it; ≥ and ≤ were set here for values at or beyond the usual limits of such assays"}, "[13]": {"target": "HLA-C*07:02", "experiment": "IEDB peptide-MHC binding, purified MHC/direct/fluorescence; filed as Kd, often an IC50 or EC50 that approximates it; ≥ and ≤ were set here for values at or beyond the usual limits of such assays", "conditions": "source organism: Dengue virus 2 Jamaica/1409/1983"}, "[14]": {"target": "HLA-A*01:01", "experiment": "IEDB peptide-MHC binding, purified MHC/direct/fluorescence; filed as Kd, often an IC50 or EC50 that approximates it; ≥ and ≤ were set here for values at or beyond the usual limits of such assays"}, "[15]": {"target": "HLA-A*24:03", "experiment": "IEDB peptide-MHC binding, purified MHC/direct/fluorescence; filed as Kd, often an IC50 or EC50 that approximates it; ≥ and ≤ were set here for values at or beyond the usual limits of such assays"}, "[16]": {"target": "HLA-A*26:01", "experiment": "IEDB peptide-MHC binding, purified MHC/direct/fluorescence; filed as Kd, often an IC50 or EC50 that approximates it; ≥ and ≤ were set here for values at or beyond the usual limits of such assays"}, "[17]": {"target": "HLA-A*30:01", "experiment": "IEDB peptide-MHC binding, purified MHC/direct/fluorescence; filed as Kd, often an IC50 or EC50 that approximates it; ≥ and ≤ were set here for values at or beyond the usual limits of such assays"}, "[18]": {"target": "HLA-A*69:01", "experiment": "IEDB peptide-MHC binding, purified MHC/direct/fluorescence; filed as Kd, often an IC50 or EC50 that approximates it; ≥ and ≤ were set here for values at or beyond the usual limits of such assays"}, "[19]": {"target": "HLA-B*07:02", "experiment": "IEDB peptide-MHC binding, purified MHC/direct/fluorescence; filed as Kd, often an IC50 or EC50 that approximates it; ≥ and ≤ were set here for values at or beyond the usual limits of such assays"}, "[20]": {"target": "HLA-B*08:01", "experiment": "IEDB peptide-MHC binding, purified MHC/direct/fluorescence; filed as Kd, often an IC50 or EC50 that approximates it; ≥ and ≤ were set here for values at or beyond the usual limits of such assays"}, "[21]": {"target": "HLA-C*03:03", "experiment": "IEDB peptide-MHC binding, purified MHC/direct/fluorescence; filed as Kd, often an IC50 or EC50 that approximates it; ≥ and ≤ were set here for values at or beyond the usual limits of such assays", "conditions": "source organism: Bacillus mycoides KBAB4"}, "[22]": {"target": "HLA-C*12:03", "experiment": "IEDB peptide-MHC binding, purified MHC/direct/fluorescence; filed as Kd, often an IC50 or EC50 that approximates it; ≥ and ≤ were set here for values at or beyond the usual limits of such assays"}, "[23]": {"target": "HLA-B*08:01", "experiment": "IEDB peptide-MHC binding, purified MHC/competitive/fluorescence; filed as Kd, often an IC50 or EC50 that approximates it; ≥ and ≤ were set here for values at or beyond the usual limits of such assays", "conditions": "source organism: Bacillus anthracis str. A0488"}, "[24]": {"target": "HLA-A*02:01", "experiment": "IEDB peptide-MHC binding, purified MHC/competitive/fluorescence; filed as Kd, often an IC50 or EC50 that approximates it; ≥ and ≤ were set here for values at or beyond the usual limits of such assays", "conditions": "source organism: West Nile virus"}, "[25]": {"conditions": "source organism: Giardia lamblia ATCC 50803"}, "[26]": {"conditions": "source organism: Bacillus mycoides KBAB4"}, "[27]": {"conditions": "source organism: Pseudomonas aeruginosa UCBPP-PA14"}, "[28]": {"conditions": "source organism: Pseudomonas aeruginosa"}},
  "data": [
    {"sequence": "AYVTWIALM", "values": [
      {"measurement": "Kd", "setting": "[1]; source organism: Mus musculus", "value": 27, "unit": "nM"}
    ]},
    {"sequence": "KQYNVTQAF", "values": [
      {"measurement": "Kd", "setting": "[2]; source organism: SARS-CoV1", "value": "≥ 51300", "unit": "nM"},
      {"measurement": "Kd", "setting": "[3]; source organism: SARS-CoV1", "value": 6350, "unit": "nM"},
      {"measurement": "Kd", "setting": "[4]; source organism: SARS-CoV1", "value": "≥ 28400", "unit": "nM"},
      {"measurement": "Kd", "setting": "[5]; source organism: SARS-CoV1", "value": 448, "unit": "nM"},
      {"measurement": "Kd", "setting": "[6]; source organism: SARS-CoV1", "value": 87.1, "unit": "nM"},
      {"measurement": "Kd", "setting": "[7]; source organism: SARS-CoV1", "value": 538, "unit": "nM"},
      {"measurement": "Kd", "setting": "[8]; source organism: SARS-CoV1", "value": 5330, "unit": "nM"},
      {"measurement": "Kd", "setting": "[9]; source organism: SARS-CoV1", "value": 1010, "unit": "nM"},
      {"measurement": "Kd", "setting": "[1]; source organism: SARS-CoV1", "value": 2, "unit": "nM"},
      {"measurement": "Kd", "setting": "[10]", "value": 65.2, "unit": "nM"}
    ]},
    {"sequence": "FRKKRLTIM", "values": [
      {"measurement": "Kd", "setting": "[11]", "value": 4430, "unit": "nM"},
      {"measurement": "Kd", "setting": "[12]; source organism: Dengue virus 2 Jamaica/1409/1983", "value": 18, "unit": "nM"},
      {"measurement": "Kd", "setting": "[13]", "value": 446, "unit": "nM"}
    ]},
    {"sequence": "KVGVYKMHK", "values": [
      {"measurement": "Kd", "setting": "[14]; [25]", "value": "≥ 20000", "unit": "nM"},
      {"measurement": "Kd", "setting": "[2]; [25]", "value": "≥ 20000", "unit": "nM"},
      {"measurement": "Kd", "setting": "[3]; [25]", "value": 163, "unit": "nM"},
      {"measurement": "Kd", "setting": "[4]; [25]", "value": 33.4, "unit": "nM"},
      {"measurement": "Kd", "setting": "[15]; [25]", "value": "≥ 20000", "unit": "nM"},
      {"measurement": "Kd", "setting": "[16]; [25]", "value": "≥ 20000", "unit": "nM"},
      {"measurement": "Kd", "setting": "[17]; [25]", "value": 15.2, "unit": "nM"},
      {"measurement": "Kd", "setting": "[5]; [25]", "value": 55.2, "unit": "nM"},
      {"measurement": "Kd", "setting": "[18]; [25]", "value": "≥ 20000", "unit": "nM"},
      {"measurement": "Kd", "setting": "[19]; [25]", "value": "≥ 20000", "unit": "nM"},
      {"measurement": "Kd", "setting": "[20]; [25]", "value": "≥ 20000", "unit": "nM"},
      {"measurement": "Kd", "setting": "[6]; [25]", "value": "≥ 20000", "unit": "nM"},
      {"measurement": "Kd", "setting": "[7]; [25]", "value": "≥ 20000", "unit": "nM"},
      {"measurement": "Kd", "setting": "[8]; [25]", "value": "≥ 20000", "unit": "nM"},
      {"measurement": "Kd", "setting": "[9]; [25]", "value": "≥ 20000", "unit": "nM"}
    ]},
    {"sequence": "FAFCRITSF", "values": [
      {"measurement": "Kd", "setting": "[21]", "value": 2, "unit": "nM"},
      {"measurement": "Kd", "setting": "[12]; [26]", "value": 1080, "unit": "nM"},
      {"measurement": "Kd", "setting": "[22]; [26]", "value": "≤ 1", "unit": "nM"}
    ]},
    {"sequence": "AYGSRFHEW", "values": [
      {"measurement": "Kd", "setting": "[14]; [27]", "value": "≥ 20000", "unit": "nM"},
      {"measurement": "Kd", "setting": "[2]; [27]", "value": "≥ 20000", "unit": "nM"},
      {"measurement": "Kd", "setting": "[3]; [27]", "value": "≥ 20000", "unit": "nM"},
      {"measurement": "Kd", "setting": "[4]; [27]", "value": "≥ 20000", "unit": "nM"},
      {"measurement": "Kd", "setting": "[15]; [28]", "value": 1.84, "unit": "nM"},
      {"measurement": "Kd", "setting": "[16]; [27]", "value": "≥ 20000", "unit": "nM"},
      {"measurement": "Kd", "setting": "[17]; [28]", "value": "≥ 31600", "unit": "nM"},
      {"measurement": "Kd", "setting": "[18]; [27]", "value": "≥ 20000", "unit": "nM"},
      {"measurement": "Kd", "setting": "[19]; [27]", "value": "≥ 20000", "unit": "nM"},
      {"measurement": "Kd", "setting": "[20]; [27]", "value": "≥ 20000", "unit": "nM"},
      {"measurement": "Kd", "setting": "[7]; [27]", "value": "≥ 20000", "unit": "nM"},
      {"measurement": "Kd", "setting": "[8]; [27]", "value": "≥ 20000", "unit": "nM"},
      {"measurement": "Kd", "setting": "[9]; [28]", "value": 4700, "unit": "nM"}
    ]},
    {"sequence": "AANMYIYPL", "values": [
      {"measurement": "Kd", "setting": "[1]; source organism: Bacillus anthracis str. A0488", "value": 57, "unit": "nM"},
      {"measurement": "Kd", "setting": "[23]", "value": 1100, "unit": "nM"}
    ]},
    {"sequence": "SLYAVTTAV", "values": [
      {"measurement": "Kd", "setting": "[22]; source organism: West Nile virus", "value": 27, "unit": "nM"},
      {"measurement": "Kd", "setting": "[24]", "value": 1.37, "unit": "nM"}
    ]}
  ]
}
